Measurements from the DeepSol protein solubility set.

test: soluble on expression in E. coli; label from the status in PepcDB or PDB records

| Sequence | soluble on expression in E. coli |
| --- | --- |
| MGSDKIHHHHHHEQKTATSEMTDVSRLMPVKIKQTVKGQEEEMLIDTVKEANRKNIKFSIAGAQHSMGGHTYYEDGIVLDMTGYNKILSLDQEKKTIRVQSGATWNDIQKYVNPYGLAVKVMQSQNIFTIGGSLSANAHGRDIRYGSLIDTVKSFRLLKADGMIITVTPKDDLFTAVIGGYGLFGVILDVTLELTDDELYVMKTEKMNYSTYSDYFSKHVKGNPDVRMHLARISTAKKGFLKDMYVTNYVLANHQDQLSSYSELKEDEYTGATKFALGLSRRYEWGRNWLWDTQQSYFLSQNGTEISRNNVMRSESKFLEYENNDNTDVLQEYFVPVKEYGSYIDDLRQTLSDEDLNLLNITIRYVQKNEKADLSYAKDDMFSLVLLINEGFSKEDQADTARIIRRMTDVAIKHGGSYYLPYMTYQTKAQMRQAYPKSEAFFQKKRTYDPDERFMNYFYQRYK | not soluble |
| GMVGINTDTENISELLKTYWSIQRISAGYADQNAASLGLTIQQLAMINVIYSTPGISVADLTKRLIITGSSAAANVDGLISLGLVVKLNKTIPNDSMDLTLKLSKKGEDLSKRSTANAFMYKAMMKVFENLTENEIEELIRLNKKVETLLKKSK | soluble |
| MAILQIGAGGVGWVVAHKAAQNNDVLGDITIASRTVGKCEKIIESIQKKNNLKDSTKKLEARAVNADDVDSLVALIEEVKPDLVINAGPPWVNMPIMEACYRAKVSYLDTSVAVDLCSEGQQVPEAYDWQWGYREKFEE | not soluble |
| MGFDESSQMIDPDGELSFFKQNENRTPVTSVPSTSKAVLPFNFDDDEDDEYFKTPKIAEKKKKLPEAMAPVSEDSFDFDIAVPQSIINRIPAKTTAQPAKKYPKIPNLSAKTSSKPTEAPKTENVLKIKSKSQEIAQKPQKSTRISSFFSRTTSSTSNLTEYKRGKSAKMKHISKMEQFFVEHERDIICVGECGLDHTISQFKLTTEDFEEQETVFKWQIDLAKHFEKPLILEIPDISRNVHSRSAARRTIEILLECHVAPDQVVLHAFDGTPGDLKLGLEAGYLFSIPPSFGKSEETTQLIESIPLSQLLLETDSPALGPEKGCKNVPANLRISAEIVAKIKKLEIDDIISATSTNANRIFKF | soluble |
| MGSDKIHHHHHHMHQYTNIKKAIQLSNSFWDVTTAAGMANIATRNLGNGRHEAVASGRQFTNMSSYSYLGLDSHPAILRAAADAVMNTGSLNTSISRIRVQFDILQQAEEALASLVDAETLTVPSCAAAAAATLPLLASGALTGDVAPLMVFDKNAHFCLNMMKPICADETEIQTIRHNDLNALEDLCKTHQRVAYVADGVYSTGGMAPVKELLALQDKYGLFLFFDEAHGLSTLGHLGRGLVLEEMGAINDRTLIVTSLNKGFGASGGAIFLGPRGDAERRKLATRFGGPVTWSQRINTAGLGAIIESVAVHKSAELPALQQKLQDNIRLFDQHVASENSGDRLPIRFVSIGSEERTILYAKSLLEDGYYTSPIFFPVIAKGRAGLRIMIRANMTTEEIERFGACLKQLRASHE | not soluble |
| MSGGSDQVKNMIYINGNRRGHCFITSGITFKEFASNIPSPLHQVLLLKHNFEWTDFHYHTLFEYVEEENIHKLIQAEIDEFDEFCWVDFDDASDLDELEPKEIAELLYLAHKKEPLARTFFPLLKNRFVYFSHDDGWYNKVYYRRIADFVGMLSKVIPYKLGAFGKKRFSFFQKSKIFPAISKELIMGLIPLMEDGLYIDLAGKIESRRGLEIPVYVVGSYESTDEVLDNIDELKEEATETGWLIFDKKEQEWQWVVD | not soluble |
| IQRSIERALDFRKEVQRLREESDGWFFDIWQPEAVDKAECWPVAPGEDWHGFKDADADHMYLDPVKVTILTPGMDEQGNMDEEGIPAALVAKFLDERGVVVEKTGPYNLLFLFSIGIDKTRAMGLLRGLTEFKRAYDLNLRVKNMLPDLYAEDPDFYRNMRIQDLAQGIH | not soluble |
| MNLEKINELTAQDMAGVNATILEQLNSDVQLINQLGYYIISGGGKRIRPMIAVLAARAVGYQGNAHVTIAALIEFIHTATLLHDDVVDESDMRRGKATANAAFGNAASVLVGDFIYTRAFQMMTSLGSLKVLEVMSEAVNVIAEGEVLQLMNVNDPDITEENYMRVIYSKTARLFEAAAQCSGILAGCTPEQEKGLQDYGRYLGTAFQLIDDLLDYSADGEHLGKNVGDDLNEGKPTLPLLHAMRHGTPEQSAMIRTAIEQGNGRHLLEPVLEAMTTCGSLEWTRQRAEEEADKAISALQILPDTPWREALIGLAHIAVQRDR | not soluble |
| MAEREVRSTAYQLNAARFPLYRDLAGFDFASSEINEALVRQLHRCEFMDQANNVVLVGGPGTGKTHITTALGVRAVEHQCKRVRFFSTVEFVNVLEQEGPRAGQIANRLAHSDLVILNELGYLPFSASGGALLFHLLSTLYGRAPASSSPLKLISASASGLP | not soluble |
| HHHHHHHSEMTPREIVSELDKHIIGQDNAKRSVAIALRNRWRRMQLNEELRHEVTPKNILMIGPTGVGKTEIARRLAKLANAPFIKVEATKFTEVGYVGKEVDSIIRDLTDAAVKMVRVQAIEKNRYRAEELAEERILDVLIPPAKNNWGQTEQQQEPSAARQAFRKKLREGQLDDKEIEIDLAAAPMGVEIMAPPGMEEMTSQLQSMFQNLGGQKQKARKLKIKDAMKLLIEEEAAKLVNPEELKQDAIDAVEQHGIVFIDEIDKICKRGESSGPDVSREGVQRDLLPLVEGCTVSTKHGMVKTDHILFIASGAFQIAKPSDLIPELQGRLPIRVELQALTTSDFERILTEPNASITVQYKALMATEGVNIEFTDSGIKRIAEAAWQVNESTENIGARRLHTVLERLMEEISYDASDLSGQNITIDADYVSKHLDALVADEDLSRFIL | soluble |
| MVPVRLPLFGPSRAEGPMGPLPLRRKALGILYYLALEGPTRRERLADLLWGHRVALQNLRSELTHLRSFFGKEAFRGPVLTLPPGVELDRTPGSGEAMEGLEDLSPAFADWVYGWRTRLAPGEEGTPFPKRLEAVRPPALVILIGPPGSGQESLAQALAQKLGLPLRHGLGEGAGVFYLSEPFPPKEVGLALKPLPGRVLVVARSSFGEDPSFLLALRTRFPAEVTVVEQVPCLSWREAVGGPLRHLPFAEAARFYLRSGGRVEVLRELLAMGNPEALPQRVRAMVALEARHLPWEARKALEVLALHPGPFPEKLAWILGYGEALDELEHRGWLLYCEGRYRFSEPQFRPYLTAGFGEGERCRLHARLAEAWEALGDPVAAAYHRFYGEKGEALKAAQLGSWRQALAAHPGPNVPLPRSRVRKGKKRALETEEIHLVSFQGEVAEAVLELEEPLLLHLQGEVYQELPLGLGANLEAFPFRLRSLKGEGAVYFLPRANPGYYPWGAVLPQENLDHEFLLRPGQYLLELGTPGVVSLRLQAWETAPGNQEILVPLEMTESL | soluble |
| SLKGLKAYRLDVPPMLADRGIDRMLAFAVPLTVRFRGIKVREGTLLHGPEGWGEWSPFWDYDPVESASWLRAGIEGATRRLPVARRDRVPINVTIPVVDADRAGRMAAESACLTAKVKVADPRSDLREDCRRVAAVREAMPDGHIRVDANTAWDVDAAVRAITELDAAAEGLEYVEQPCASVAELAQVRRKVNVPVAADESVRRAEDPLAVARAGAADLLIVKAQPLGGVARALEVIDATGLPAVVSSALDTSIGIGLATYLAAALPSLDHACGLGTIRLFQGDVSASPLLPVDGYLRPRRGEVDVEVEESDTDLCPRWSQRLALTVAALVERERS | not soluble |
| MLPHTGLFLLGKVALQMRIRRRLKQGVIMAKTNNKPETAETAAPSFEDIKAELDAVQAELAAARNDVEMLTTALEKAEDDKKALSAELAELKVQHTQRAADALADSRDVMLVSTGADGKEFWRGGLLFDGGWREVKRAEVGEAVWKAICAEPMLQRKAVE | not soluble |
| MVSLEKNDHLMLARQLPLKSVALILAGGRGTRLKDLTNKRAKPAVHFGGKFRIIDFALSNCINSGIRRMGVITQYQSHTLVQHIQRGWSFFNEEMNEFVDLLPAQQRMKGENWYRGTADAVTQNLDIIRRYKAEYVVILAGDHIYKQDYSRMLIDHVEKGARCTVACMPVPIEEASAFGVMAVDENDKIIEFVEKPANPPSMPNDPSKSLASMGIYVFDADYLYELLEEDDRDENSSHDFGKDLIPKITEAGLAYAHPFPLSCVQSDPDAEPYWRDVGTLEAYWKANLDLASVVPELDMYDRNWPIRTYNESLPPAKFVQDRSGSHGMTLNSLVSGGCVISGSVVVQSVLFSRVRVNSFCNIDSAVLLPEVWVGRSCRLRRCVIDRACVIPEGMVIGENAEEDARRFYRSEEGIVLVTREMLRKLGHKQER | not soluble |
| MGSDKIHHHHHHLSSPQYRINMQKYVFRIHPLNTYQLSFFPNYEVNMYKKLNPMIGDRVYRSKGLVMHVGVMVDRDLVAHNSPDNNVEVISMEHFSQGKKVELKRSIGVDPTALKAQLQRISEENRRYCPISFNCEHFANELLGTKDGSEQLLAALLVGSFGLTCKNKWLGLATAGATGLLLCNGLRKYSTT | not soluble |
| MSLKCETERSKTWNNFGNGIPCVLGIDEAGRGPVLGPMVYAAAISPLDQNVELKNLGVDDSKALNEAKREEIFNKMNEDEDIQQIIAYALRCLSPELISCSMLKRQKYSLNEVSHEAAITLIRDALACNVNVVEIKVDTVGPKATYQAKLEKLFPGISICVTEKADSLFPIVSAASIAAKVTRDSRLRNWQFREKNIKVPDAGYGSGYPGDPNTKKFLQLSVEPVFGFCSLVRSSWKTASTIVEKRCVPGSWEDDEEEGKSQSKRMTSWMVPKNETEVVPKRNVYFKERHMSNILTF | not soluble |
| MNAATLVDTHAVDTALQEAFEAAPEGFALFDAEDRCVIWNARYGELWSKWGVTLAVGATFESLLLAGLAAGRFPEANGDRAAWLAHQLGRRKLDRIEEIREEFGEYLRFESRRTPAGGLITTCANLTNLRRREAQALAARSFLDTIVENTPAMLFVKDGDTGAFLLVNRAAENQLGVPRAELLGKSDYDFFPKEQADAFAADDRRVIASGKLVTIDEEPLDTPHNGRRWLQTRKIAIPGEDGRRHLLVICEDITERKAGAAALAEALQKAEAGSVAKSEFLANMSHEIRTPLNGVIGMAEVLSRTALDDAQREMMEVILNSGRALNLLLSDILDLSKIEAGGLELSRDPLDLREAITAAVAVFKAVAESKGLVFRLTFADDFHDHVLGDALRVRQIVANLTSNAVKFTTAGSVIIEARTLVAEDGRIDLTVSVQDTGEGFDEDSADRLFERFQQADGSVTRKVGGTGLGLPIARRLARLMDGEISCVAHPGEGATFVFEALFLADGQRTPAASADPAGELALDRRLRVLLAEDHPTNQKVIGLMLADAADVTVAEDGQAAVEAFEKHAYDVVLMDTQMPVMDGLAAIAEIRRREREAQARRTPIISLTANAMPHQVRACLEAGADLHLAKPVSIQGLFATLGAALETRPGGEGLEHHHHHH | not soluble |
| FGQYLAIRRTDALLRQQLDTLTIDTLSELEGKLPVKSNSLVIAYIRRVLESKDRPAHVQRLLADFEITADKDLAISKTLTKMGP | not soluble |
| MSLKRSSICYRASKPLIASLVMSVWNAVHLSRRFAALPQAFYTPVHPQPLQNVRWGMWNSRLAQQFGLPEAPNDELLLSLSGQQLPADFSPVAMKYAGHQFGVYNPDLGDGRGLLLAEMATKQGEVFDIHLKGAGLTPYSRMGDGRAVLRSSLREYLCSEAMAGLGIATTRALALMSSETPVYREREERGALLVRLAHTHVRFGHFEHFFYTDQHANLKLLADKVIEWHFPDCVQTSKPYAAWFSQVVERTALMIAQWQAYGFNHGVMNTDNMSILGETFDYGPFAFLDDYDPNFICNHSDYQGRYAFDQQPRIGLWNLSALAHALSPLIDKDDLEAALGSYSERLNLHFSRLMRAKLGLATQQEGDGELFADFFALLANNHTDYTRFLRELSCLDRQGNEAVIDLVLDREAAKTWLTRYLERAARELGQEGRPISTRERCQAMRQVNPKYILRNYLAQQAIEFAERGDFEEMQRLATVLASPYAEHPEFERYAKLPPEWGKKLEISCSSEGGSHHHHHH | soluble |
| AIAEEWDVPQMKKEVESLKYQLAFQREMASKTIPELLKWIEDGIPKDPFLNPDLMKNNPWVEKGKCTIL | soluble |
